Results from patent publication US20170152288A1 (published 2017).

Biological target: T1, rProtein A Sepharose FF (Staphylococcus aureus, UniProt P38507 37-327, immobilized on Sepharose FF chromatography resin (commercial, GE Healthcare))
T1 construct: all other ligands (L1-L78, A2P, MEP Hypercel) are small molecules; also called rProtA; rProtein A Sepharose 4 FF
Assay: batch adsorption in 96-well plates, Langmuir isotherm fit, Bradford assay of supernatant

B1: Bevacizumab (Avastin, F. Hoffmann-La Roche, Switzerland) (antibody, V domains shown)
VH: EVQLVESGGGLVQPGGSLRLSCAASGYTFTNYGMNWVRQAPGKGLEWVGWINTYTGEPTYAADFKRRFTFSLDTSKSTAYLQMNSLRAEDTAVYYCAKYPHYYGSSHWYFDVWGQGTLVTVSS
VL: DIQMTQSPSSLSASVGDRVTITCSASQDISNYLNWYQQKPGKAPKVLIYFTSSLHSGVPSRFSGSGSGTDFTLTISSLQPEDFATYYCQQYSTVPWTFGQGTKVEIK
- Kd: 4.7 µg/mL
